Test results taken from patent US8815529B2, “Sulfotransferase assay” (Research & Diagnostics Systems, Inc., priority 2011, dated 2014).

Columns and labels:
Type in all cases: biochemical
[1] = SULT1A1 enzyme dose curve, phosphatase-coupled sulfotransferase assay; conditions: for rate of phosphate release: 0.25 mM PAPS, 0.25 mM pNP
Experimental: (§1) In the following examples, the gPAPP used was recombinant mouse gPAPP expressed in CHO cells as an N-terminal His-tagged recombinant protein containing amino acids from E51 to K356, created by R & D Systems. The sequence was based on accession number NP 808398 from the National Center for Biotechnology Information. The chondroitin sulfate (CS) and p-nitrophenol (pNP) were obtained from Sigma Aldrich. The PAPS was prepared by R & D Systems using recombinant S. cerevisiae ATP sulurylase and P. chrysogenum APS kinase. The APS kinase was also prepared by R & D Systems. Recombinant human SULT1A1, CHST3, CD73, TNAP and Malachite Green Phosphate Detection Kit were from R & D Systems. Protein concentrations were quantified using the Bradford assay as described by Bradford, M. M., A rapid and sensitive method for the quantitation of microgram quantities of protein utilizing the principle of protein-dye binding. Anal Biochem. 1976. Vol 72, Page 248-254, the relevant portions of which are hereby incorporated by reference. Phosphate levels were determined using the Malachite Green Phosphate Detection Kit available from R & D Systems, according to the package instructions. All examples were performed in a buffer of 25 mM Tris at pH 7.5.
A series of reactions was performed by combining various amounts of SULT1A1 with 0.25 mM PAPS and 0.25 mM pNP and with either 1 μg gPAPP alone, or both 1 μg gPAPP and 0.1 μg CD73 in 50 μL of Tris buffer containing 10 mM of MgCl2 at pH 7.5. […] Since gPAPP and CD73 together release two equivalents of phosphate from each PAP, the specific activity of SULT1A1 was averaged to 40.0±1.9 pmol/min/μg. This specific activity is consistent with the known results obtained using radioisotope assays.

[2] = CHST3 enzyme dose curve, gPAPP-coupled assay; conditions: 10 mg/ml CS, 0.5 mM PAPS, 1 μg gPAPP
Experimental: as §1, with “Vol 72, Page 248-254, the relevant portions of which are hereby incorporated by reference.” left out, “All examples were performed in a buffer of 25 mM Tris at pH 7.5.” left out
First, the optimal concentration for CS was visually determined to be >5 mg/ml and the optimal concentration for PAPS was visually determined to be about 0.5 mM using FIGS. 10A and 10B by finding the substrate concentration corresponding to the highest point in the curves. […]

[3] = gPAPP activity: Mg2+ and pH dependence; conditions: 0.025 μg gPAPP, 25 nmol PAP
Experimental: as §1, with “Vol 72, Page 248-254, the relevant portions of which are hereby incorporated by reference.” left out, “All examples were performed in a buffer of 25 mM Tris at pH 7.5.” left out
First, the activity of gPAPP in the presence of Mg^2+ was tested by combining 0.025 μg gPAPP, 25 nmol PAP and increasing amounts of Mg^2+ in 50 μL of assay buffer of 25 mM Tris at pH 7.5. […] In a second experiment, the activity of gPAPP was evaluated at various pH levels. […]

[4] = Coupling capacity of gPAPP; conditions: 10 mM Mg2+, pH 7.5
Experimental: as §1, with “Vol 72, Page 248-254, the relevant portions of which are hereby incorporated by reference.” left out, “All examples were performed in a buffer of 25 mM Tris at pH 7.5.” left out
In this example, the coupling capacity of gPAPP was determined. […] The coupling capacity of gPAPP was determined by combining 1 μg gPAPP with increasing amounts of PAP, in the presence or absence of 0.5 mM PAPS in 50 μL assay buffer containing 10 mM Mg^2+ at pH 7.5 for either 20 or 40 minutes. […]

B1: SULT1A1: recombinant human sulfotransferase SULT1A1 from R & D Systems (protein, UniProt P50225 1-295, looked up)
Sulfotransferase 1A1: MELIQDTSRPPLEYVKGVPLIKYFAEALGPLQSFQARPDDLLISTYPKSGTTWVSQILDMIYQGGDLEKCHRAPIFMRVPFLEFKAPGIPSGMETLKDTPAPRLLKTHLPLALLPQTLLDQKVKVVYVARNAKDVAVSYYHFYHMAKVHPEPGTWDSFLEKFMVGEVSYGSWYQHVQEWWELSRTHPVLYLFYEDMKENPKREIQKILEFVGRSLPEETVDFVVQHTSFKEMKKNPMTNYTTVPQEFMDHSISPFMRKGMAGDWKTTFTVAQNERFDADYAEKMAGCSLSFRSEL
[1]; averaged over gPAPP alone and gPAPP plus CD73
  specific activity: 40.0 ± 1.9 pmol/min/µg
[1]; coupled to both gPAPP and CD73
  rate of phosphate release: 83.7 pmol/min/µg
[1]; coupled to gPAPP alone
  rate of phosphate release: 38.1 pmol/min/µg

B2: CHST3: recombinant human carbohydrate sulfotransferase 3 from R & D Systems (protein, UniProt Q7LGC8 1-479, looked up)
Carbohydrate sulfotransferase …: MEKGLTLPQDCRDFVHSLKMRSKYALFLVFVVIVFVFIEKENKIISRVSDKLKQIPQALADANSTDPALILAENASLLSLSELDSAFSQLQSRLRNLSLQLGVEPAMEAAGEEEEEQRKEEEPPRPAVAGPRRHVLLMATTRTGSSFVGEFFNQQGNIFYLFEPLWHIERTVSFEPGGANAAGSALVYRDVLKQLFLCDLYVLEHFITPLPEDHLTQFMFRRGSSRSLCEDPVCTPFVKKVFEKYHCKNRRCGPLNVTLAAEACRRKEHMALKAVRIRQLEFLQPLAEDPRLDLRVIQLVRDPRAVLASRMVAFAGKYKTWKKWLDDEGQDGLREEEVQRLRGNCESIRLSAELGLRQPAWLRGRYMLVRYEDVARGPLQKAREMYRFAGIPLTPQVEDWIQKNTQAAHDGSGIYSTQKNSSEQFEKWRFSMPFKLAQVVQAACGPAMRLFGYKLARDAAALTNRSVSLLEERGTFWVT
[2]
  specific activity: 1110 pmol/min/µg

B3: gPAPP: recombinant mouse gPAPP expressed in CHO cells, N-terminal His-tagged, amino acids E51 to K356 (protein, UniProt Q80V26 51-356, looked up, fragment)
chain: EVASDGGTVDLREMLAVAVLAAERGGDEVRRVRESNVLHEKSKGKTREGADDKMTSGDVLSNRKMFYLLKTAFPNVQINTEEHVDASDKEVIVWNRKIPEDILKEIAAPKEVPAESVTVWIDPLDATQEYTEDLRKYVTTMVCVAVNGKPVLGVIHKPFSEYTAWAMVDGGSNVKARSSYNEKTPKIIVSRSHAGMVKQVALQTFGNQTSIIPAGGAGYKVLALLDVPDMTQEKADLYIHVTYIKKWDICAGNAILKALGGHMTTLNGEEISYTGSDGIEGGLLASIRMNHQALVRKLPDLEKSGH
modifications: N-terminal His tag
notes: recombinant mouse gPAPP expressed in CHO cells, N-terminal His-tagged, amino acids E51 to K356
[3]; 25 mM Tris pH 7.5
  Mg2+ concentration at which maximum activity was achieved: greater than 10 mM
[3]; 10 mM Mg2+
  pH of optimal activity: ~7.5
[4]; 20 minute reaction
  coupling capacity (PAP completely hydrolysed by 1 μg gPAPP): 8 nmol
[4]; 40 minute reaction
  coupling capacity (PAP completely hydrolysed by 1 μg gPAPP): 15 nmol
